According to paper PMC11999266, “Human glutathione transferases catalyze the reaction between glutathione and nitrooleic acid” (The Journal of Biological Chemistry, 2025):

B1: Human glutathione transferase A4-4 (hGST A4-4) (enzyme, UniProt O15217 1-222, looked up)
chain: MAARPKLHYPNGRGRMESVRWVLAAAGVEFDEEFLETKEQLYKLQDGNHLLFQQVPMVEIDGMKLVQTRSILHYIADKHNLFGKNLKERTLIDMYVEGTLDLLELLIMHPFLKPDDQQKEVVNMAQKAIIRYFPVFEKILRGHGQSFLVGNQLSLADVILLQTILALEEKIPNILSAFPFLQEYTVKLSNIPTIKRFLEPGSKKKPPPDEIYVRTVYNIFRP
notes: Human glutathione transferase A4 (alpha class), ORF of GenBank Y13047.1; Homodimer; Expressed as a C-terminal fusion to His-tagged Trx1 with a TEV site in between; the fusion partner was cut off; the printed mass (25,761 Da) may include such a remnant (surmise); source: E. coli BL21(DE3), pET-Trx1b, purified (GSH-Sepharose, TEV cleavage, HisTrap flow through, SEC); not shown: His tag, N-terminal, …
B2: Human glutathione transferase M1-1 (hGST M1-1) (enzyme, UniProt P09488 1-218, looked up)
chain: MPMILGYWDIRGLAHAIRLLLEYTDSSYEEKKYTMGDAPDYDRSQWLNEKFKLGLDFPNLPYLIDGAHKITQSNAILCYIARKHNLCGETEEEKIRVDILENQTMDNHMQLGMICYNPEFEKLKPKYLEELPEKLKLYSEFLGKRPWFAGNKITFVDFLVYDVLDLHRIFEPKCLDAFPNLKDFISRFEGLEKISAYMKSSRFLPRPVFSKMAVWGNK
notes: Human glutathione transferase M1 (mu class), ORF of GenBank X08020.1; purified without tags; Homodimer; In the crystal it carries the small-molecule adduct GS-10-NO2-OA in the active site; source: E. coli BL21(DE3), pET22b, purified (GSH-Sepharose, SEC)

Molecular target: the molecule itself
Assay: SEC; HiLoad 16/600 Superdex 200, Tris buffer (50 mM, pH 8.0, 150 mM NaCl), calibrated with proteins of known mass; final purification step

Protein	stoichiometry N
B1	2
B2	2
